According to the nanobody polyreactivity screen of Harvey et al. (2022):

Assay: yeast display, Sf9 membrane polyspecificity reagent, FACS + sequencing; frameworks hold sequencing errors
How it was run: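 Genes from sorted yeast were amplified by colony PCR, read by MiSeq 2 × 250 sequencing and filtered on CDR length. These cells carried a synthetic nanobody library in Saccharomyces cerevisiae BJ5465 and were sorted by FACS into low and high (top ~1%) gates on anti-HA and streptavidin fluorescence. Polyreactivity is labelled according to the gate of origin.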

Row | Sequence | polyreactivity (PSR sort gate)
1 | QVHLEESGGGIVQAGGSLRLSCAASGFTFPVHAMGWYRQAPGKERQLVAAIRWIGGDTYYADSVKGRFTISRDNAKNTVYLQMNSLKPEDTAVYYCAAEDTDDYSIWFEYWGQGTQVTVSS | high polyreactivity
2 | QVQLVESGGGLVQAGGSLRLSCAASGRNFGLYAMGWYRQAPGTERELVAAISWGGGRTYYADSVKGRFTISRDNAKNTVYLQMNSLKPEDTAVYYCNAVYSPRYYVGGYDYWGQGTQVTVSS | high polyreactivity
3 | QVQLVDSGGGLVQAGGSLRLSCAASGRTSRRYAMGWYRQEPGKERELVAAIRGSGGSTYYADSVKGRFTISRDNAKNTVYLQMNSLKPEDTAVYYCAARSPRASGNSDYWGQGTQVTVSS | high polyreactivity
4 | QVQLVESGGGLVQAGGSLRLSCAASGSIFVGNAMGWYRQAPGKERELVAAISSSGGSTYYADSVKGRFTISRDYAKNSVYLQMNSLKPEYTAVYDCAADTYSTSGYYYWGQGTQVTVSS | low polyreactivity
5 | QVQLVESGGGLVQAGGSVRLSCAASGFIFYDYVMGWYRQAPGKERELVAAISASGGSTYYADSVKGRFTISRDYAKNTVYLQMNSLKPEDTAVYYCAAPRYYYYWRDYWGQGTQVTVSS | high polyreactivity
6 | QVQLVESGGGLVQAGGSLRLSCAASGFTFGYNAMGWYRQAPGKEREFVAAISISTGRTFYADSVKGRFTISRDNAKNTVYLQMNSLKPEDTAFYYCAARGYYPTNVGKYNYWGQGTQVTVSS | high polyreactivity
7 | QVQLVESGGGLVQAGGSLRLSCAASGFNFRANGMGWYRQAPGKERELVATITSGGTTNYADSVKGRFTISRDNAKNTVYLQMNSLKPEDTAVYYCDKRFGPAYFRLYDYWGQGTQVTVSS | low polyreactivity
8 | QVQLVESGGGLVQAGGSLRLSCAASGFIFDDNAMGWYRQAPGKERELVAAITSGGGSTYYADSVKGRFTISRDNAKNTVYLQMNSLKPEDTAVYYCARDQTWSYQPWYYLSYPQYEYWGQGTQVTVSS | low polyreactivity
9 | QVQLVESGGGLVQAGGSLRLTCAASGFTFSYYTMGRYRQAPGKERELVAAISSGGSTYYADSVKGRFTISRDNAKNSVYLQMNSLKPEDTAVYYCNAYYGSYSPANGEYWGQGTQVTVSS | high polyreactivity
10 | QVQLVESGGGLVQAGGSLRLSCAASGRIFPPNAMGWYRQAPGKERELVAGITSSGDTTYYADSVKGRFTISRDNAKNTVYLQMTSLKPEDTAVYYCAKDEVYADDRSALFDYWGQGTQVTVSS | low polyreactivity
11 | QVQLVESGGGLVQAGGSLRLSCADSGFTFYYSAMGWYRQAPGKEREVVAAISWGGGTTYYADSVKGRFTISRDNAKNTVYLQMNSLKPEDTAVFYCNAASSLPGYDYWGQGTQVTVSS | high polyreactivity
12 | QVQLVESGGGLVQAGGSLRLSCAASGRIFVAYAMGWYRQAPGKERELVAAITWSGTSTYADSVKGRFTISRDNAKNTVYLQMNSLKPEDTAVYYCAKKAIVSDQWDKYDYWGQGTQVTVSS | low polyreactivity
13 | QVQLVESGGGLVQAGGSLRLTCAASGRTSNGYAMGWYRQAPGNERELVAAYADSVKGRFTISRDNAKNTVYLQMNSLKPEETAVYYCNADYDPVSRVGYVYWAYYYWGQGTQVTVSS | low polyreactivity
14 | QVQLVESGGGLVQAGGSLRLICAASGFTFYKYTMGWYRQAPGKERELVAAISARGGSTYYADSVKGRFTISRDNAKNTVYLQMNSLKPEDTAVYYCAADYWRTYGLGYDYWGQGTQVTVSS | high polyreactivity
15 | QVQLVESGGGLVQAGGSLRLSCAASGRTIPTYVMGWYRQAPGKERELVASIRSGGRTKYADSVKGRFTISRDNAKNTVYLQMNSLKPEDTAVYYCAADRRAYYYSFDYWGQGTQVTVSS | low polyreactivity
16 | QVQLVESGGGLVQAGGSLRLSCAASGFTFWLYAMGWYRHAPAKEREFVAAISTSGGSTYADSVKGRFTISRDNAKYTVYLQMNSLKPEDTAVYYCNAGYVLYYDYHLFYWGQGTQVTVSS | low polyreactivity
17 | QVQLVESGVGLGQAGGSLRLSCAASGRIFSRYAMGWYRPAPGKERELVATITRRGGSTSYADSVKGRFTISRDNAKNTVFLQMNCLKPEDTAVYYCAAQSFYGIYYGKQDYDYWGQGTQVTVSS | high polyreactivity
18 | QVQLLESGGGLVQAGGSLRLSCAASGGTFYSYAMGWYRQAPGKEREFVATITRRSGSTYYADSVKGRFTISRDNAKNTVYLQMNSLKPEDNAVYYCAATKYKLLFIHFRYDYWGQGTQVTVSS | high polyreactivity
19 | QVQLVESGGGLVQAGGSLRLSCSASGLTFNFNAMGWYRQAPGKERELVAAISYRAGSTYYADSVKGRFTISRDNAKNTVYLQMNSLKPEDTAVYYCAADGYYYVKSGTYWSDYWGQGTQVTVSS | low polyreactivity
20 | QVQLVESGGGLVQAGGSLRLSCAASGRIFQRYVMGWYRQAPGKERELVASISWRGGSTYYADSVKGRFTISRDNAKNTVYLQMNSLKPEDTAVYYCAARRYTDYVRVAREMDYWGQGTQVSVSS | high polyreactivity
21 | HVQLVESGGGLVQAGGSLRLSCAASGSISHLYTMRWYRQAPGKERELVAAIRYSGGRTDYADSVKGRFTISRDNAKNTVYLQMNSLKPEDTAVYYCAATQLRRWYYHYGLDYWGQGTQVTVSS | high polyreactivity
22 | QVQLVESGGGLVQAGGSLRLSCAASGITFRGYAMGWYRKAPGKERELVASITNTDSTYYADSVKGRFTISRDNAKNTVYLQMNSLKPEDTAVYYCAARRGRKYGYWGQGTQVTVSS | high polyreactivity

Row | Sequence | polyreactivity (PSR sort gate)
23 | QDQLVESGGGLVQAGGSLRLSCAASGIIFYRYAMGWYRQAPGKERELVAAITWSGVSTSYADSVKGRFTISRDNAKNTVYLQMNSLKPEDTAVYYCNKDPGTLYGDMDSWGQGTQVTVSS | low polyreactivity
24 | QVQLVESGGGLVEAGGSLRLSCAASGSNFPWNAMGWSIQAPGKESDLVAGISSRGGSTYYADSVKGRFTISRDNAKNTVYLQMNSLKPEDTAVYYCNAAAVRRGRLVKLDYWGQGTQVTVSS | high polyreactivity
25 | QVHLVESGGGLVQAGGSLRLSCAASGSIFSYYAMGWYRQAPGKERELVAAISQSGGSTYYADSVKGRFTISRDNAKNTVYLQMNSLKPEDTAVNYCNAGRGTFKRYTALQYWGQGTQVTVSS | low polyreactivity
26 | QVQLVESGGGLVQAGGSLRLSCAASGRTFRYYAMGWYRPAPGKERELVATITGSGGSTYYADSVKGRFTISRDNAKNTVYLQMNSLKPEDTAVYDCNARKVRYPYRWYVYWGQGTQVTVSS | high polyreactivity
27 | QVQLLESAGGLVQAGGSLRLRCSASGYISCDASMGWYRHAPGKERELAASITKGSSTNYADSEKGRFTIRDNAINTVYLQMNSLKPEDTAVCYCAVTYPYWGDYTYWGHGTQVTVSS | low polyreactivity
28 | QVQLVESGGGLVQAGGSLRLSCDASGSTFTFNDMGWYRQAPGKERELVAAITSGGSTTYADSVKGRFTISRDNAKNTVYLQMNSLKPEDTAVYYCAADYVYFYFYGYDSWGQGTQVTVSS | low polyreactivity
29 | QVQLVESGGGLVQAGGSLRLSCAASGRTFYQNVMGWSRQAPGKERELVAAITWGGGSTYYADSVKGRFTISRDNAKNTVYLQMNSLKPEDTAVYYCNRTFRSRLPTSRGYDYWGQGTQVTVSS | low polyreactivity
30 | QVQLVESGGGLVQAGGSLRLSCAASGIIFGRYAMGWYRQAPGKERELVAAINASGGSTYYADSVKGRFTISRDNAKNTVYLQMNSLKPEDTAVYYCATVHVWGFVYVGSGYWGQGTQVTVSS | high polyreactivity
31 | QVQLVESGGGLVQAGGSLRLSCAASGRIFAPYAMGWYRQAPGKERELVAAIDGSGGSTYYADSVKGRFTISRDNAKNTVYLQMNSLKPEDTAVYYCATRGSYRSQRWYGYWGQGTQVTVSS | high polyreactivity
32 | QVQLVESGGGLVQAGGSLRLSCAASGRILVRNAMGWYRQAPGQERELVAAITRTGASTYYADSVKGRFTISRDNPKNTVYLQMNSLKPEDTAVYYCAAVWGLPYWVYRYDYWGQGNQVTVSS | high polyreactivity
33 | QVQLVESGGGLVQAGGSLRLSCAASGRTFRLNAMGWYRQAPGKERELVAAITSSGGSTYYADSVKGRFTISRDNAKNTVYLQLNSLKPEDTAVYYCARRQGYGVRSIRWGDYWGQGTQVTVSS | high polyreactivity
34 | QVQLVESGGGLVQAGGSLRLSCAASGSIFDDYAMGWYRQSPGQERELVAAISWSGGSTYYADSVKGRFTISRDNAKNTDYLQMNSLKPDDTAVYYCAGYDYDYLYGEYYWGQGTQVTVSS | low polyreactivity
35 | QVQLVESGGGFFQAGGSLRLSCAASGNTFGINAMRWYREAPGKERELVAAISWSGDRTYYADSVKGRFTISRDNAKNTVYLQMNSLKPEDTAVYYCAAGKYRFTYYALEYDYWGQGTQVTVSS | low polyreactivity
36 | QVQLVESGGGLVQAGGSLRLSCAASGRIFYYNTMGWYRQAPGKERELVAAITTNGGSTYYADSVKGRFTISRDNAKNTVYLQMNSLKPEDTAVYYCNRDRYPYYYAYNYWGQGTQVTVSS | low polyreactivity
37 | QLQLHESGGVQAGGSLRLSCAAGGYISRSDVMGWYRQAPGKERELVATINNGTITYYADSVKGRFNISRDNAKNTVYLQMNSLKREDTAVHYWAVVQSDCDSLYYWGQGTQVTVSS | low polyreactivity
38 | QVQLVESGGGLVQAGGSLRLSCAASGSTLRRNAMGWSRQAPGKERELVAAITGSRGSTFYADSVKGRFTISRDNAKNTVYLQMNSLKPEDTAVYYCAVYKWSTRVSQYRYDYWGQGTQVTVSS | high polyreactivity
39 | QVQLVESGGGLVQAGGSLRLSCAASGRNFRDYDMGWYRQAPGKERELGAAITYDGYSTYYADSVKGRFTISRDNAKNTVYLQMNSLKPEDTAVYYCNADDDVTYFTYYSGGLYYWGQGTQVTVSS | low polyreactivity
40 | QVQLVESGGGLVQAGGSLRLSCAASGSTFSFYAMGWYRQAPGKERELVAAISWSDGSTYYADSVKGRFTISRDNAKNTVYLQMNSLKPEDTAVYYCAARRLAYIFYTVGYDYWGQGTQVTVSS | low polyreactivity
41 | QVQLVESGGGLVQAGGSLSLICAASGRILSGNAMVWYRQAPGKERELVAAITNAGITKYAVSVKGRFTISRDNAKNTVYLQMNSLKPEHTEVYYCASDRYAYKLYDYWGQGTQVTVSS | low polyreactivity
42 | QVQLVESGGGLVQAGGSLRLSCAASGRIFYNNVMGWYRQAPGKERELVAAISGNGGSTYYADSVKGRFTISRDNAKNTVYLQMNSLKPEDTAVYFCAADDLYTDYETWWRRGDYWGQGTQVTVSS | low polyreactivity
43 | QVQLVESGGGLFQAGGSLRLSCAASGSTFPKYEMGWYRQAPGKERELVATISSGTRTYYADSVKGRFTISRDNAKNTVYLQMNSLKPDDTAVYYCAASYQPRKGAHYGYWGQGSQVTVSS | high polyreactivity
